Source: the supplement of paper PMC10724198
± gives the standard deviation of the averaged measurements.

Test system: Saccharomyces cerevisiae
Experiment: protein stability index of tFT-peptide fusion (C-terminal peptide) (PSI (0-1 scale)); higher = more stable (slower turnover)
Conditions: genetic background: wild type; temperature: 30 C
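Also: PSI is a weighted mean of sequencing reads over stability bins, variants kept only with over 10 reads, mCherry proximal and sfGFP distal, peptide attached via GGGS linker.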

Sequence	protein stability index
RRPRKSAAGLRG	0.768 ± 0.08
RRPRPRSGWILL	0.69 ± 0.047
RRRRSITEHRSS	0.69279 ± 0.00018
RRRSSRPAPPPL	0.698 ± 0.023
RRRTGRRNCTET	0.712 ± 0.038
RRSIAVEFSGTG	0.679 ± 0.041
RRSTIHSRLFGA	0.6786 ± 0.0041
RRTKKERQKSWK	0.649 ± 0.038
RRVCLIASLWGC	0.625 ± 0.023
RRVELCWAAGVR	0.641 ± 0.025
RRVGVVAWGRGG	0.71 ± 0.01
RRVRGGAAEKET	0.723 ± 0.1
RSALFLLTLVPI	0.565 ± 0.018
RSDKRTRYRIII	0.751 ± 0.17
RSFFDRLNRSLS	0.666 ± 0.032
RSFYDNVLRPFK	0.776 ± 0.035
RSGENTVKPVRQ	0.658 ± 0.029
RSGGGRRGVGWV	0.641 ± 0.067
RSGGVRCNDVRR	0.675 ± 0.05
RSGSGGVAGRRE	0.692 ± 0.022
RSLLLINRPTPP	0.714 ± 0.015
RSLPSSPTPPED	0.755 ± 0.081
RSLVALSRRLRG	0.6374 ± 0.0023
RSLWGPRVGVFA	0.594 ± 0.014
RSPLNTAPLRNR	0.682 ± 0.025
RSPRSSSPHPIY	0.7649 ± 0.006

Sequence	protein stability index
RSPSCSPSAVPL	0.738 ± 0.063
RSQIHEILLYLF	0.492 ± 0.082
RSQRRWCSKIRV	0.625 ± 0.095
RSRLPPPPLLFP	0.702 ± 0.048
RSRLPTPRLYPP	0.708 ± 0.01
RSRPPPPPLLFP	0.701 ± 0.043
RSRSKKKKRKQY	0.671 ± 0.042
RSRTSKGGNFII	0.6766 ± 0.0053
RSSNRRAIRSHD	0.7106 ± 0.0019
RSTPRPSSRDSL	0.7789 ± 0.006
RSTQRWAVAWSG	0.678 ± 0.09
RSVPLLNPGFHY	0.663 ± 0.026
RSYSSTGAGDDK	0.721 ± 0.15
RTAGSARIESAL	0.645 ± 0.017
RTDALKVVADMI	0.682 ± 0.034
RTEMASLERKSF	0.696 ± 0.017
RTGGIVATRASE	0.779 ± 0.13
RTHPPADAWYLS	0.698 ± 0.035
RTPMAIDALCGS	0.637 ± 0.045
RTPPLPLLPPHP	0.788 ± 0.052
RTQKNMKKSYCG	0.63 ± 0.0075
RTQMLIIDKRNS	0.6437 ± 0.0028
RTRMSEGECIST	0.708 ± 0.053
RTRPAMSRCSKR	0.704 ± 0.045
RTRRRQELNHSK	0.735 ± 0.2
RTSNARLLPRIG	0.681 ± 0.034

Sequence	protein stability index
RVCYVYIGVTMH	0.634 ± 0.19
RVDRVFGGFGGS	0.724 ± 0.14
RVFGSFLSGEQF	0.70035 ± 0.00058
RVFTGLCRPFGV	0.736 ± 0.012
RVGERGEGGGVV	0.638 ± 0.014
RVGYVPNFFCVL	0.6254 ± 0.0038
RVIIWDRRFLAG	0.6793 ± 0.0026
RVIVRGREIEIV	0.6782 ± 0.0018
RVLDNYLTDYCL	0.675 ± 0.061
RVLPSDSPVAPA	0.667 ± 0.044
RVLRKIWEWKKG	0.685 ± 0.051
RVLRREKPVVHC	0.603 ± 0.008
RVLVRLFGRGKA	0.688 ± 0.025
RVLVSPPPPLPS	0.688 ± 0.026
RVMELEGRSKLK	0.633 ± 0.026
RVQAVTNKVAAR	0.692 ± 0.012
RVRCPVVSGGRG	0.707 ± 0.099
RVRSKNIKIRWK	0.798 ± 0.029
RVTRPSARLLSP	0.639 ± 0.084
RVVDAPPSGCRS	0.688 ± 0.037
RVVGCPPLLLPP	0.639 ± 0.035
RVWRLIGFHVSS	0.713 ± 0.012
RVYFGRPRSIVL	0.656 ± 0.025
RVYKCNMKNNSK	0.661 ± 0.018
RWGANSVSLEGE	0.737 ± 0.02
RWGCVGWKVVGG	0.709 ± 0.1

Sequence	protein stability index
RWGGGQRLSRGT	0.7082 ± 0.0037
RWGGWFCRLPIG	0.698 ± 0.05
RYGARAGPPVNL	0.68 ± 0.054
RYGHSVLQSGIS	0.73 ± 0.042
RYLSVPGLEIPK	0.677 ± 0.068
RYRPSPPPPPPH	0.762 ± 0.054
RYVSCLSIPCLL	0.6373 ± 0.0018
RYYNDKKEKNIL	0.706 ± 0.0085
SACRVGKSILDT	0.728 ± 0.057
SACVEQVHLRWF	0.642 ± 0.092
SAFFSAWVLVLD	0.555 ± 0.024
SAGAPRMPARGG	0.691 ± 0.071
SAKQTYFKRVAQ	0.66 ± 0.042
SALLLPRARPPD	0.634 ± 0.055
SALRALRPGSLP	0.806 ± 0.11
SALSKYFLSVRL	0.633 ± 0.012
SAPFSPSLTHHP	0.742 ± 0.14
SAPLVHASSSPQ	0.722 ± 0.042
SAPPPAPPPPPR	0.702 ± 0.027
SAQHPSTRHRPP	0.6 ± 0.035
SARLCPPRGGFR	0.748 ± 0.018
SARLTPDLPAPS	0.642 ± 0.017
SARRAALGVWVV	0.636 ± 0.026
SASPHSPSPPSR	0.627 ± 0.079
SASRPRRWGLAR	0.609 ± 0.007
SASVACFCGLVV	0.7 ± 0.023

Sequence	protein stability index
SATHLLADPAPG	0.661 ± 0.088
SATPSSLPLPPS	0.739 ± 0.029
SAVGRTYGVIII	0.673 ± 0.029
SAVRLGANLCRT	0.6979 ± 0.0057
SAVVPYLGWSPV	0.708 ± 0.015
SCAPRSPCTPPP	0.718 ± 0.015
SCDIFIYTHLVS	0.612 ± 0.031
SCFGVSRSAHFL	0.728 ± 0.027
SCFLAFSFLCLF	0.5 ± 0.0096
SCFLISIPLGFV	0.5678 ± 0.0055
SCGMDLALGYAV	0.689 ± 0.061
SCPPLKYNNKTY	0.66 ± 0.015
SCPTPRFPQCSS	0.633 ± 0.034
SCRLYIKVDKSA	0.6464 ± 0.0034
SCVDHLGCHSSG	0.739 ± 0.029
SCYLLDFGCIWV	0.646 ± 0.0083
SDFLTYAEARLD	0.72 ± 0.12
SDKDIYQRLSYE	0.643 ± 0.036
SDSAPSPPAFLP	0.6569 ± 0.0025
SDVKFGFCGVAS	0.655 ± 0.028
SEAFDSSARRAL	0.541 ± 0.043
SEEGMGRCSDEE	0.731 ± 0.028
SEFKLVVGSRSD	0.715 ± 0.032
SEGKQYITGRWK	0.702 ± 0.084
SELRFALCPAFL	0.666 ± 0.019
SERPVPTSISLR	0.682 ± 0.0069

Sequence	protein stability index
SERRVKKIEEQI	0.77 ± 0.084
SERYFFFQCGPH	0.6802 ± 0.0033
SETGSGGLFSLP	0.693 ± 0.018
SEVIIAISNKNH	0.5275 ± 0.0019
SFACLLGRGWVD	0.719 ± 0.06
SFADFVFMDHCA	0.696 ± 0.062
SFAKHRNASMGR	0.691 ± 0.04
SFERPAQAHALA	0.698 ± 0.012
SFGSPLFFFPFL	0.736 ± 0.036
SFIGEDHQCVFY	0.723 ± 0.013
SFILRRISSAIS	0.645 ± 0.014
SFISPFFCTRPV	0.638 ± 0.012
SFLFWFFASGWL	0.56 ± 0.047
SFLHLLCSFVLL	0.51 ± 0.039
SFMPFVLPLSSP	0.71 ± 0.023
SFPGVRHSTSDS	0.676 ± 0.017
SFPYPHRDLVTP	0.7114 ± 0.0016
SFSLAPSPPLLP	0.721 ± 0.042
SFSSLVLSSCFW	0.706 ± 0.026
SGDSVAVGVTGT	0.689 ± 0.056
SGDVGGGHWVGG	0.729 ± 0.013
SGFLPPRFLSPS	0.6895 ± 0.0012
SGFPSCFRPSFY	0.702 ± 0.021
SGFRALWGLFAL	0.683 ± 0.014
SGFYQNTCSSLV	0.756 ± 0.12
SGGAGGSCMRYV	0.704 ± 0.022

Sequence	protein stability index
SGGGGGWQEEAG	0.662 ± 0.027
SGGIPGSPNVRL	0.657 ± 0.01
SGGRLVVCEGPG	0.65 ± 0.087
SGGRRRAGKGAT	0.69 ± 0.049
SGGVLSNGRLAA	0.684 ± 0.052
SGHRLTYEFFPT	0.741 ± 0.074
SGLFFRWCRLSW	0.638 ± 0.031
SGLFGDAVPCCV	0.632 ± 0.03
SGNYRGGLTVFS	0.711 ± 0.023
SGPGPGAVGATC	0.702 ± 0.057
SGPTFRWAGVLC	0.593 ± 0.014
SGRGVEVGGEGE	0.752 ± 0.053
SGRIHLLHSPWV	0.712 ± 0.052
SGRMAIYVFGVV	0.579 ± 0.01
SGSMHWTDPPGS	0.6747 ± 0.0051
SGSVLHEFILVV	0.543 ± 0.028
SGTLYELNAVVV	0.644 ± 0.016
SGTPTFTPSYPS	0.717 ± 0.026
SGTVRRQCGNPD	0.69752 ± 0.00027
SGVALFFFPPLL	0.71 ± 0.039
SGVGLAETAGDD	0.68 ± 0.027
SGVGSRDGVRGA	0.684 ± 0.048
SGYCCDGCKGSY	0.6461 ± 0.0028
SHAATKGSLFNV	0.631 ± 0.0074
SHEARMVCGSSV	0.63331 ± 0.00024
SHLLPPPLTPAS	0.673 ± 0.031

Sequence	protein stability index
SHLMETPACSAP	0.915 ± 0.082
SHPLTLPSLLPP	0.717 ± 0.045
SHRRLPPSRFYR	0.7 ± 0.081
SHSTNNHKLTPR	0.677 ± 0.082
SHSTPAFPLPPP	0.638 ± 0.068
SHVDRVVFWYLL	0.529 ± 0.033
SHVLPHPGLSPP	0.655 ± 0.061
SHVMLCLHFLFR	0.498 ± 0.018
SHVVDAPYRSEG	0.66601 ± 0.00013
SINLLFHSFFFL	0.608 ± 0.047
SIPAPLAPLWGL	0.627 ± 0.055
SIPVPFSFPLFI	0.598 ± 0.0065
SIQVFDTYIITD	0.697 ± 0.068
SIRGLRTLKFLG	0.6739 ± 0.0049
SIRNNMKRVRKN	0.631 ± 0.022
SISFPPPPRSLT	0.719 ± 0.08
SIWLLSGGQCFL	0.684 ± 0.027
SKERLKSEKMKK	0.745 ± 0.059
SKGQLRLNMCIL	0.662 ± 0.046
SKKKKNLQIPKK	0.734 ± 0.12
